According to paper doi:10.1101/694653 (bioRxiv, 2019):
Like-named read-outs stand apart in the source and are kept apart here.

Assays:
Experiment in all cases: cross-linking
[1] = molecular target: A. aegypti GPA2-FLAG (Aedes aegypti) (UniProt C6SUP2)
[2] = molecular target: A. aegypti GPA2-FLAG (Aedes aegypti) (UniProt C6SUP2); remark: listed apart in the source
[3] = molecular target: A. aegypti GPA2-His (Aedes aegypti) (UniProt C6SUP2)
cross-linking [4] = molecular target: the molecule itself
cross-linking [5] = molecular target: the molecule itself; remark: listed apart in the source

For “A. aegypti GPA2-FLAG (from UniProt C6SUP2 1-120) (natural protein)”, the stoichiometry N [1] was 2 and the stoichiometry N [2] was 2.

Molecule “A. aegypti GPA2-His (from UniProt C6SUP2 1-120) (natural protein)” has a stoichiometry N [3] of 2.

B1: A. aegypti GPB5-His (natural protein, Aedes aegypti, UniProt C6SUR0 1-162, looked up)
chain: VEDSLFISGFEKKAPMLGCHKRVFTYRISQADSKGRECWDHVSVWSCHGRCDSNEISDWRFPYKRSHHPVCMHAGRTRSVATLRHCHPEADAEAKLYEYMEPKSCSCQTCTSMDTSCEGPKQLSTDAATKIFQIDDEEIESEYA
B1 was tested, and the “stoichiometry N” value (cross-linking [4]) was 2.

B2: H. sapiens GPB5-His (natural protein, UniProt Q86YW7 25-130, looked up)
chain: ASSGNLRTFVGCAVREFTFLAKKPGCRGLRITTDACWGRCETWEKPILEPPYIEAHHRVCTYNETKQVTVKLPNCAPGVDPFYTYPVAIRCDCGACSTATTECETI
In the case of B2, the “stoichiometry N” value (cross-linking [5]) is reported as 2.

B3: H. sapiens GPA2-FLAG (natural protein, UniProt Q96T91 24-129, looked up)
chain: QEAVIPGCHLHPFNVTVRSDRQGTCQGSHVAQACVGHCESSAFPSRYSVLVASGYRHNITSVSQCCTISGLKKVKVQLQCVGSRREELEIFTARACQCDMCRLSRY
In the case of B3, the “stoichiometry N” value (cross-linking [5]) is reported as 2.
